In the supplement of paper PMC10126150:
± gives the standard deviation of the averaged measurements.

Tested on: ATP
Test: switch fluorescence ratio, 500 uM ATP over buffer (Cy3 cluster intensity, sum of 5 cycles each) (fold (ratio)); higher = stronger signal-on switching upon ATP binding; sequences stand for … in TCGTCGGCAGCGTCAGATGTGTATAAGAGACAGTTTTTTTTTTTTTTTTTTTTTTTTT…TC
Details: aptamer strand: ATP DNA aptamer (quencher-CACCTGGGGGAGTATTGCGGAGGAAGG + anchor), 100 nM annealed; ATP concentration: 500 uM
Summary of the method: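 Clusters with intensities outside 100-1000 RFU were excluded. The remaining Cy3-labelled switching-strand clusters on a modified Illumina MiSeq flow-cell had been annealed to 100 nM quencher-labelled ATP aptamer and imaged in selection buffer, then after 15 min with 500 uM ATP at 22 °C, for five cycles separated by NaOH stripping and re-annealing. The fluorescence ratio, averaged per switch-domain sequence, is each cluster's summed target-cycle Cy3 intensity over its summed buffer-cycle Cy3 intensity.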
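Note: ATP exposure 15 min at 22 °C before imaging.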

Sequence | switch fluorescence ratio
TTCCGGGCGT | 1.12 ± 0.058
TTCCGGGGAA | 1.16 ± 0.21
TTCCGGTGTT | 1.05 ± 0.079
TTCCGGTTGG | 1 ± 0.023
TTCCTAAAGA | 1.06 ± 0.03
TTCCTAAATT | 0.9979 ± 0.0034
TTCCTAATGG | 1.04 ± 0.046
TTCCTAATTT | 1.63 ± 0.94
TTCCTCGGGT | 1.03 ± 0.014
TTCCTGAAGG | 1.02 ± 0.041
TTCCTGGCGG | 1.11 ± 0.1
TTCCTTCT | 1.13 ± 0.11
TTCCTTGCGT | 1.14 ± 0.043
TTCCTTGGGA | 0.984 ± 0.014
TTCCTTGTAG | 1.02 ± 0.017
TTCGAAAGTT | 0.987 ± 0.026
TTCGACATGT | 1.025 ± 0.0042
TTCGAGCTAA | 1.2 ± 0.26
TTCGAGTCGT | 1.006 ± 0.0034
TTCGATAAGA | 0.999 ± 0.06
TTCGATAATC | 1.15 ± 0.16
TTCGATATGT | 0.984 ± 0.022
TTCGATCCGT | 1.07 ± 0.029
TTCGATTGGG | 0.95725 ± 0.00037
TTCGCAGGGA | 1.074 ± 0.0042

Sequence | switch fluorescence ratio
TTCGCATATT | 1.47 ± 0.26
TTCGCCAGAT | 1.04 ± 0.035
TTCGCGAGGT | 2.67 ± 2.3
TTCGCGATGT | 1.13 ± 0.11
TTCGCGTGTT | 1.003 ± 0.0055
TTCGCTACGT | 1.02 ± 0.021
TTCGCTAGCT | 1.03 ± 0.058
TTCGGACGGT | 1.04 ± 0.06
TTCGGAGCGG | 1.34 ± 0.24
TTCGGATAAA | 1.01 ± 0.058
TTCGGATATA | 0.9915 ± 0.0063
TTCGGCAACG | 0.997 ± 0.035
TTCGGCTCTC | 1.63 ± 0.86
TTCGGCTTGG | 0.984 ± 0.035
TTCGGCTTTT | 0.983 ± 0.024
TTCGGGAAGC | 1.018 ± 0.0056
TTCGGGCGCG | 0.952 ± 0.021
TTCGGGGGGG | 1.01 ± 0.043
TTCGGGGTCG | 0.985 ± 0.072
TTCGGGGTTT | 1.02 ± 0.06
TTCGGGTGCT | 1.08 ± 0.052
TTCGGTGGGG | 0.9805 ± 0.0094
TTCGGTGTTT | 1.02 ± 0.022
TTCGGTTAGT | 1 ± 0.012
TTCGTACCGC | 1.09 ± 0.029

Sequence | switch fluorescence ratio
TTCGTACGAG | 1 ± 0.026
TTCGTATAGA | 1 ± 0.041
TTCGTATATA | 1.01 ± 0.018
TTCGTATATC | 1.7 ± 0.93
TTCGTATCAG | 1.02 ± 0.035
TTCGTATCAT | 1.049 ± 0.0097
TTCGTGAACG | 1 ± 0.071
TTCGTGATTT | 1.02 ± 0.04
TTCGTGCAGG | 1.02 ± 0.043
TTCGTGTAAG | 1.02 ± 0.015
TTCGTGTACA | 1.03 ± 0.026
TTCGTGTATC | 0.999 ± 0.011
TTCGTGTTGG | 0.973 ± 0.025
TTCGTTAGCA | 1.54 ± 0.8
TTCGTTATAG | 1.01 ± 0.044
TTCGTTGTGG | 1.031 ± 0.0047
TTCGTTTAGT | 1.039 ± 0.0026
TTCGTTTATC | 1.07 ± 0.093
TTCGTTTGAC | 1.03 ± 0.1
TTCTAACTCA | 1.02 ± 0.029
TTCTAAGGAG | 1.017 ± 0.0022
TTCTAAGTA | 1.021 ± 0.0044
TTCTAATCGG | 1.006 ± 0.01
TTCTAATTTG | 0.968 ± 0.058
TTCTAATTTT | 0.995 ± 0.027

Sequence | switch fluorescence ratio
TTCTAGCGAA | 1.17 ± 0.22
TTCTAGCTTG | 1.01 ± 0.047
TTCTAGGAAT | 1.02 ± 0.059
TTCTAGTTAC | 1.047 ± 0.0056
TTCTATTTAA | 1.02 ± 0.029
TTCTCCGGTT | 1.31 ± 0.29
TTCTCGGTTT | 1.02 ± 0.025
TTCTCTAGAT | 1.056 ± 0.0066
TTCTCTATTT | 0.983 ± 0.028
TTCTGAAGC | 3.69 ± 1
TTCTGAATAT | 1.01 ± 0.024
TTCTGGCACG | 1.12 ± 0.18
TTCTGGGGGG | 0.991 ± 0.027
TTCTGGTCTA | 0.986 ± 0.011
TTCTGTGGAA | 1.04 ± 0.036
TTCTGTTAAA | 1.02 ± 0.027
TTCTGTTATT | 1.11 ± 0.21
TTCTGTTGAC | 1.7 ± 0.95
TTCTGTTTTT | 1.09 ± 0.15
TTCTTAAAAA | 0.993 ± 0.026
TTCTTACTGG | 0.995 ± 0.021
TTCTTAGAAA | 0.991 ± 0.019
TTCTTCGGGC | 1.08 ± 0.077
TTCTTGACTT | 1.02 ± 0.011
TTCTTGATTT | 1 ± 0.035

Sequence | switch fluorescence ratio
TTCTTGCTGG | 0.997 ± 0.019
TTCTTGGGTA | 0.989 ± 0.011
TTCTTTATAT | 0.9721 ± 0.005
TTCTTTATGG | 0.973 ± 0.028
TTCTTTGATT | 1 ± 0.011
TTCTTTGGTT | 0.9889 ± 0.0055
TTCTTTGTTT | 1.01 ± 0.024
TTCTTTTACG | 1.049 ± 0.0082
TTCTTTTATA | 0.99 ± 0.04
TTCTTTTTAT | 0.982 ± 0.03
TTCTTTTTCA | 1.06 ± 0.067
TTGAAAAAAT | 1.06 ± 0.13
TTGAAACCGG | 0.998 ± 0.017
TTGAAATTAC | 1.03 ± 0.065
TTGAAGAGG | 1.02 ± 0.035
TTGAAGGCGT | 1 ± 0.026
TTGAAGTTAT | 0.9897 ± 0.0021
TTGAAGTTCG | 0.986 ± 0.022
TTGAAGTTTT | 0.991 ± 0.039
TTGAATACCC | 1.052 ± 0.008
TTGAATGCCA | 0.99 ± 0.028
TTGAATGCCG | 1.04 ± 0.035
TTGAATGGGG | 1.05 ± 0.043
TTGAATGTTG | 1.004 ± 0.0037
TTGAATGTTT | 0.992 ± 0.059

Sequence | switch fluorescence ratio
TTGAATTTTA | 0.999 ± 0.033
TTGACAGGGC | 0.952 ± 0.057
TTGACATGC | 1.01 ± 0.044
TTGACCCAGG | 1.23 ± 0.11
TTGACCGCTG | 1.16 ± 0.03
TTGACCTTTG | 1.01 ± 0.011
TTGACGAGTA | 1.1 ± 0.13
TTGACGGGGG | 1.01 ± 0.03
TTGACGTGCC | 1.021 ± 0.0033
TTGACTGGG | 0.991 ± 0.023
TTGACTGGTG | 1.02 ± 0.013
TTGACTTGTG | 0.971 ± 0.022
TTGAGCATTT | 0.982 ± 0.03
TTGAGCCCCG | 0.951 ± 0.047
TTGAGCGAGG | 0.961 ± 0.01
TTGAGCTAGA | 0.971 ± 0.025
TTGAGGATCA | 1.02 ± 0.029
TTGAGGATGT | 1 ± 0.034
TTGAGGGATA | 1.01 ± 0.055
TTGAGGGGGC | 1.01 ± 0.05
TTGAGGGGGG | 1.01 ± 0.048
TTGAGGGTTG | 0.987 ± 0.037
TTGAGGTTGT | 0.99 ± 0.028
TTGAGTAATG | 1.01 ± 0.017
TTGAGTGAAA | 0.999 ± 0.0017

Sequence | switch fluorescence ratio
TTGAGTGACG | 0.9845 ± 0.0025
TTGAGTTAAA | 0.991 ± 0.037
TTGAGTTATT | 0.96 ± 0.031
TTGATAAAGG | 1.02 ± 0.026
TTGATAAAGT | 0.997 ± 0.0043
TTGATACGTG | 1.01 ± 0.058
TTGATATTTT | 1.04 ± 0.096
TTGATCAACG | 0.995 ± 0.014
TTGATCACTT | 1.001 ± 0.005
TTGATCAGGC | 0.996 ± 0.016
TTGATCCGAC | 1.35 ± 0.25
TTGATCCGCT | 1.74 ± 0.47
TTGATCGGTG | 0.999 ± 0.023
TTGATCTGGT | 1.01 ± 0.027
TTGATGAAAA | 1 ± 0.038
TTGATGCAA | 1.07 ± 0.028
TTGATGCGTT | 1.01 ± 0.015
TTGATGGCGA | 1.22 ± 0.3
TTGATGGGTG | 0.995 ± 0.015
TTGATGGTGC | 1.05 ± 0.038
TTGATTAAGA | 1.06 ± 0.078
TTGATTAGGC | 1.06 ± 0.029
TTGATTCAAT | 1.17 ± 0.33
TTGATTCG | 1.015 ± 0.0037
TTGATTCGT | 0.99 ± 0.02

Sequence | switch fluorescence ratio
TTGATTTAAA | 1.01 ± 0.0047
TTGATTTATA | 0.983 ± 0.042
TTGATTTGCA | 0.99989 ± 0.00088
TTGATTTGGT | 1 ± 0.011
TTGATTTTGA | 1.04 ± 0.037
TTGCAAGAGG | 1.02 ± 0.024
TTGCAAGGCG | 1 ± 0.062
TTGCAAGGTT | 1.01 ± 0.017
TTGCACAAAA | 1.033 ± 0.0078
TTGCAGCATG | 1.51 ± 0.68
TTGCAGTTC | 1.88 ± 1
TTGCCACTCT | 1.04 ± 0.064
TTGCCAGTGT | 0.996 ± 0.028
TTGCCGGGTT | 1.17 ± 0.17
TTGCCTAAGC | 0.974 ± 0.016
TTGCCTTTTG | 1.08 ± 0.16
TTGCGAGTC | 0.996 ± 0.062
TTGCGCCCCC | 1.104 ± 0.011
TTGCGGGCAG | 1.04 ± 0.032
TTGCGGGCCG | 0.967 ± 0.068
TTGCGTTTCC | 1.19 ± 0.23
TTGCGTTTCT | 1.08 ± 0.086
TTGCTAGGGA | 1.01 ± 0.055
TTGCTAGTTG | 0.994 ± 0.036
TTGCTATACG | 1.2 ± 0.13
